Measurements reported in patent publication US12533393B2, “Vibrio cholerae protein for use against cancer” (priority 2019, dated 2026).
Where a SMILES comes first, the peptide text is derived from it. The star is where a group is joined. Cbz = O=C(OCc1ccccc1)*; CH2F = FC*

Legend:
[1] = tested on: HCT8 cells; assay: MakA with 5FU, tumor cell morphology; type: cell-based, human; conditions: HCT8, compared to untreated control
Method: B) Change in tumor cell morphology in response to MakA and 5FU or MakA at different concentration in combination with 5FU (20 μM). Scale bar=30 μm
Further, the effect on tumor cell morphology was investigated. Unlike 5FU or MakA alone, the combination of MakA and 5FU caused massive changes in tumor cell morphology (FIG. 8B).

[2] = tested on: advanced colorectal cancer; conditions: cited from earlier work
[3] = tested on: β-catenin in HCT8 and DLD1 cells; assay: β-catenin signaling in colon cancer cells (western blot, fractionation, confocal); type: cell-based, human
Method: (§1) Colon carcinoma cells were grown on 8-well chamber slide (3×10^4/well, Millipore) overnight, followed by treatment with MakA for 6 or 24 hours and treated with either Alexa-568 labelled or unlabeled MakA (500 nM), fixed with 2% paraformaldehyde (20 min), permeabilized with Triton X (0.25%). Cells were incubated with anti-Ki67 (1:300), anti-β-catenin (1:300), anti-pAKT (1:100) primary antibodies overnight at +4° C., followed by incubation with corresponding Alexa-488 or Alex-568 conjugated secondary antibodies (1:200) for 1 hour. Finally, cells were counterstained with nuclear marker DAPI for 5 min. Slides were mounted with Fluoromount™ aqueous mounting medium (Sigma) and examined using EZC1 Eclipse laser scanning confocal microscope (Nikon), using 63×/1.4 plan Apo ns lens. Images were captured and processed using the NIS-Elements (Nikon) and ImageJ software.
To examine whether MakA affects β-catenin signaling in human colon cancer cells, HCT8 and DLD1 cells carrying mutations that inactivates APC tumor suppressor gene (Mouradov, D. et al. (2014) Cancer Res. 2014 Jun. 15; 74(12):3238-47) were used.
To address if MakA decreases the nuclear accumulation of β-catenin, cells were treated with MakA and fractionated into cytoplasmic and nuclear fractions.
As caspase-3 mediated fragmentation of β-catenin has been reported (Steinhusen, U. et al. (2000) J Biol Chem 275: 16345-16353), its role in MakA induced β-catenin fragmentation was investigated.

[4] = tested on: colon carcinoma cells; assay: Caspase inhibition and MakA-induced cell death; type: cell-based, human; conditions: pretreatment; Presto Blue, MTS, flow cytometry
Method: (§2) For cell death experiments, cells were grown on 96-well plate (1×10^4/well, Tecan Group Ltd) overnight and treated with MakA at different concentration for 48 hours at +37° C., 5% CO2. Cell death was quantified by two different biochemical methods: (1) reduction in PrestoBlue staining; and (2) reduction in MTS absorbance. Cell death is expressed as percentage (%) of untreated control cells for PrestoBlue assay or reduction in absorbance for MTS assay.
(§3) For cell death analysis, cells were treated with MakA or vehicle control for 48 h and were subjected to flow cytometry analysis for apoptotic cell death measurement using either Annexin V/Propidium iodide or Annexin V/7AAD (BD Pharmingen) staining according to manufactures instruction. Percentage of apoptotic cells was determined by BD LSRII and BD Accuri C6 flow cytometer (BD Bioscience), respectively.
To address if caspases plays an important role in MakA induced cell death, colon carcinoma cells were pretreated with zVAD-fmk, a pan caspase inhibitor; (Enzolifesciences, Cat #ALX-260-020-M001) followed by treatment with MakA.

[5] = tested on: colon carcinoma cells; assay: Fluorescence and confocal microscopy of apoptosis markers; type: cell-based, human
Source text: (§4) A) MakA induces concentration-dependent apoptotic cell death in HCT8 cells. B) Quantification of flow cytometry events from (A). […] Scale bar=50 μm. D) MakA induces fragmentation of tumor cell nuclei. Scale bar=10 μm E) Accumulation of Bax (green) to the mitochondria of apoptotic cells by MakA. DAPI was used as a nuclear marker. Scale bar=10 μm. F) MakA caused loss of mitochondrial potential in colon carcinoma cells as evident by loss of DiOC6 staining, quantified by flow cytometry. G) MakA causes activation of pro-apoptotic proteins including caspase 3, cytochrome C and Bax and suppression of antiapoptotic protein, Bcl2.
as §1

[6] = tested on: HCT8 cells; assay: Apoptotic cell death by flow cytometry; type: cell-based, human; conditions: 48 h
Method: as §3
Apoptotic cell death in response to MakA was investigated using flow cytometry and fluorescent microscopy.

[7] = tested on: tumor cell membrane; assay: Transmission electron microscopy of membranes; type: cell-based; conditions: versus vehicle (Tris 20 mM)
Source text: To address if MakA accumulation at the cell surface may play an important role in tumor cell membrane perturbation, cells treated with MakA were compared to untreated cells and imaged with transmission electron microscopy (TEM). […] The mitochondrial damage was confirmed by confocal microscopy (FIG. 4B).

[8] = tested on: human tumor cell lines of diverse origin (HCT8, DLD1, PC3, HTB9, Suit2, MCF7); assay: Cell death assays (PrestoBlue, MTS) in tumor cell lines; type: cell-based; conditions: 48 hours
Method: as §2
(§5) However, overexpression of at least three components (makCBA) or whole operon (makDCBA) was required for induction of lethality to C. elegans (FIG. 1A). The effect of purified MakA protein was investigated on in vitro cultured human tumor cell lines of diverse origin (HCT8 and DLD1=colon cancer cell, PC3=Prostate cancer cells, HTB9=Bladder cancer cell, PC3=Prostate cancer cell, Suit2=Pancreatic cancer cell, MCF7=Breast cancer cells).

[9] = tested on: colon carcinoma cells; assay: Mitochondrial potential by DiOC6 staining, flow cytometry; type: cell-based, human
Source text: as §4

[10] = tested on: human RBCs; assay: Hemolysis of human RBCs; type: cell-based
Source text: However, overexpression of at least three components (makCBA) or whole operon (makDCBA) was required for lethality against C. elegans. (Dongre et al. (2018) Commun Biol. 2018 Jun. 7; 1:59) B) MakA causes cell death in tumor cell lines (HCT8 and DLD1=colon cancer cell, PC3=Prostate cancer cells, HTB9=Bladder cancer cell, PC3=Prostate cancer cell, Suit2=Pancreatic cancer cell, MCF7=Breast cancer cells) of diverse origin. The healthy non-cancerous cells from colon (CCD-18Co and CCD 841 CoN), prostate (PNT1A) and oral fibroblasts (PDL1) were intermediately sensitive compared to tumor cells. […] TritonX-100 (0.1%) induced RBCs hemolysis was used as a positive control. D) MakA induced dramatic changes in tumor cell morphology, unlike non-cancerous PDL1 fibroblasts that were largely unaffected. Scale bar=20 μm.

[11] = tested on: CT26 cell line; assay: CT26 xenograft mice model of colon cancer; type: in vivo; conditions: repeated intratumor injection, 25 μg, from day 9, sacrificed day 21, versus vehicle
Method: (§6) A) Colon cancer was established using the rapidly proliferating CT26 cell line. From day 9, mice were treated by repeated intratumor injection of MakA (25 μg) or Vehicle (Tris 20 mM) at indicated intervals and sacrificed on day 21.
as §6, with “The therapeutic effect of MakA against colon cancer was investigated in a well-established colon cancer model.” for “A)”, “21 (FIG. 7A).” for “21.”

[12] = tested on: non-transformed colon cells (CCD-18Co and CCD 841 CoN), prostate (PNT1A) and oral fibroblasts (PDL1); assay: Cell death assays in non-transformed cells; type: cell-based, human; conditions: at the concentration that effectively killed carcinoma cells
Method: as §2, §5

[13] = tested on: tumor cell migration; assay: Tumor cell migration; type: cell-based
[14] = tested on: Ki67, cyclin D1, VEGF in HCT8 and DLD1 cells; assay: Ki67, cyclin D1 and VEGF expression; type: cell-based, human
[15] = tested on: C. elegans; conditions: MakA overexpressed in E. coli; cited from earlier work
[16] = tested on: PIP5K1α, PLCβ, caspase-3 in HCT8 cells; assay: Immunoblot of phospholipid signaling proteins; type: cell-based, human; conditions: HCT8, MakA 500 nM
Method: The effects of MakA on PIP5K1α, PLCβ, actin and caspase-3 were investigated. For immunoblot analysis, HCT8 cells treated with control or MakA toxin were collected and lysed with lysis buffer containing (50 mM Tris, 100 mM NaCl, 1 mM EDTA, 1 mM DTT, 1% Triton X 100, 2% SDS with 1× protease inhibitor cocktail and 1× phosphatase inhibitor). Protein samples were resolved on SDS-PAGE and processed for immunoblotting according to standard procedures. Antisera used were anti-PIP5K1a polyclonal antiserum (1:2000), anti-PLCβ polyclonal antiserum (1:2000), anti-actin polyclonal antiserum (1:5000), and anti-caspase 3 antiserum (1:1000) (all from Cell Signaling Technology, Inc).

[17] = tested on: Bax, Bcl2, cytochrome c, caspase 3 in HCT8 cells; assay: Western blotting of apoptosis proteins; type: cell-based, human
Source text: The regulation of apoptosis involves activation of caspases, increase in Bax/Bcl2 ratio and release of cytochrome c from mitochondria to cytoplasm (Elmore, S. (2007) Toxicol Pathol. 2007; 35(4): 495-516). The effect of MakA on expression of these proteins was investigated using western blotting.
The effect of MakA on expression of cytochrome c and caspase 3 activation was investigated.

[18] = tested on: human colon carcinoma cells, HCT8; oral fibroblasts, PDL1; assay: Live cell microscopy of cell morphology; type: cell-based; conditions: HCT8 versus PDL1
Method: Cells were grown in 96 well plate (1×10^4/well, Tecan Group Ltd) overnight and treated with MakA at different concentration for 48 hours at +37° C., 5% CO2. Fluorescence and bright field images were captured with fluorescence microscope (Nikon, Eclipse Ti). Images were processed using the NIS-Elements (Nikon) and ImageJ software. For live cell confocal microscopy, cells were grown on a coverslip and treated with Alexa-568 labelled MakA for 6 or 24 hours at +37° C., 5% CO2.
as §5

[19] = tested on: tumor cell proliferation; assay: Colony forming assay; type: cell-based
Source text: The effect of MakA on tumor cell proliferation was investigated.

[20] = western blot, HCT8 and DLD1 cells

Molecule: O=c1[nH]cc(F)c(=O)[nH]1 [5FU, 5-fluorouracil, reference compound]
- tumor cell morphology [1]: caused increased cell size
- overall response rate [2]: 10-15%

Molecule: COC(=O)C[C@H](NC(=O)[C@H](C)NC(=O)[C@@H](NC(=O)OCc1ccccc1)C(C)C)C(=O)CF [zVAD-fmk, reference compound] (Cbz-Val-Ala-Asp(OMe)-CH2F)
- effect of caspase inhibitor on MakA-induced β-catenin fragmentation ([3]; HCT8 and DLD1 cells): rescued both HCT8 and DLD1 cells from MakA-induced fragmentation and decrease in β-catenin
- effect of caspase inhibitor on MakA-induced cell death [4]: partially rescued the cells from MakA-induced cell death

B1: MakA (protein, listed as Vibrio cholerae)
chain: MSQQVTQLNPTQQTTQSAFLATTVITAQCHAILNTQFTPPTVKPDWFDDLSKKLDSAKLVAKQWIDDLGPQVSASIPSSVINFDATFQASIDAIHELYKADPTASGKDNTTVQQASQIMTALSSQVSGIEATVKGMNKELSDWGVKMQAAHDDLVNGATNIQKTIIDLQTDIESMNNAIDNNRAAIEKLNKDLVYAQVAVGVGIFMLVAGVALTVATAGTAAAVSGGIAAVGAASIIAGGVTWGVLQNQIDDDYDSIAQEQKQKAEDQQQIIALQGLSNASSAVVSAIETSTSVLSDFETTWTVFGNELDDVVTKLNNGASMQSIIMEKVMSDAAKNEWDDAVELAKQLASAKIAIETKELAPAVKQAA
- Bax accumulation to mitochondria [5]: causes accumulation of active Bax to the mitochondria of an apoptotic cell
- plasma membrane permeabilization (uptake of propidium iodide) [5]: causes permeabilization of tumor cell plasma membrane
- nuclear staining of apoptotic cells ([5]; fluorescence and confocal microscopy): nuclear fragmentation and chromatin condensation
- tumor cell morphology [1]: caused rounding of the cells
- early and late apoptotic cell death [6]: dose-dependent increase in both early and late apoptotic cell death
- nuclear membrane by TEM [7]: irregular thin nuclear membrane indicating its damage
- plasma membrane and mitochondria by TEM [7]: induced plasma membrane remodelling and mitochondrial damage
- cell death in tumor cells [8]: induces cell death in diverse range of tumor cells in a dose-dependent manner
- mitochondrial membrane potential [9]: caused depolarization of the mitochondrial membrane
- lysis of human RBCs [10]: failed to induce lysis of human RBCs
- tumor volume [11]: caused significant reduction in tumor volume
- β-catenin expression ([3]; HCT8 and DLD1 cells): caused suppression of β-catenin expression in both HCT8 and DLD1 cells
- β-catenin localization ([3]; compared to untreated control): accumulate at the plasma membrane
- β-catenin expression in cytoplasmic and nuclear fractions ([3]; fractionated cells): caused reduction in β-catenin expression both in cytoplasmic and nuclear fractions
- β-catenin fragmentation [3, 20]: β-catenin fragmentation was detected
- sensitivity of non-transformed cells to MakA [12]: largely unaffected or intermediately sensitive
- tumor cell migration [13]: caused suppression of tumor cell migration in a dose dependent manner
- Ki67 positive cells [14]: reduction in number of Ki67 positive cells
- cyclin D1 expression [14]: reduction in cyclin D1 expression
- expression of VEGF [14, 20]: inhibited in both HCT8 and DLD1 cells
- lethality to C. elegans [15]: not lethal to C. elegans
- cleaved caspase-3 [16]: expression of cleaved caspase-3 was also observed
- level of PIP5Kα [16]: efficiently reduce the level of PIP5Kα
- level of PLC-β [16]: reduced level of PLC-β
- caspase 3 activation [17]: activation of caspase 3
- expression of Bax [17]: induction in expression of pro-apoptotic protein, Bax
- expression of Bcl2 [17]: decrease in expression of anti-apoptotic protein, Bcl2
- expression of cytochrome c [17]: increase in cytochrome c expression
- plasma membrane remodeling [18]: induced plasma membrane remodeling in human colon carcinoma cells, HCT8 but not in oral fibroblasts, PDL1
- tumor cell proliferation [19]: caused significant reduction in tumor cell proliferation
